From patent publication US20260193378A1

Assays:
[1] = biological target: first-generation PSMA-targeting Pz1 CAR; experiment: flow cytometry on PG13 fibroblasts expressing the Pz1 CAR (panel title 'PZ1', sample line 'PZ1-12D11-H'), 12D11 detected with anti-hamster IgG FITC, FL1-H FITC against FL2-H PE, live gate, 9102 events; parental PG13 cells in the same gate: 0.85
[2] = biological target: CD19-targeting first-generation 19z1 CAR; experiment: flow cytometry on PG13 fibroblasts expressing the 19z1 CAR (panel title '19z1', sample line '19z 1-12D11-H'), 12D11 detected with anti-hamster IgG FITC, FL1-H FITC against FL2-H PE, live gate, 7334 events; parental PG13 cells in the same gate: 0.85
[3] = biological target: CD19-targeting second-generation 1928z CAR; experiment: flow cytometry on PG13 fibroblasts expressing the 1928z CAR (panel title '19-28z1 cells', sample line '1928z 1-12D11-H'), 12D11 detected with anti-hamster IgG FITC, FL1-H FITC against FL2-H PE, live gate, 9569 events; parental PG13 cells in the same gate: 0.85
[4] = biological target: first-generation PSMA-targeting Pz1 CAR; experiment: flow cytometry on CAR+ PG13 fibroblasts, FL2-H PE against FL1-H FITC (no staining), live gate, 9029 events; lower right panel, taken as Pz1 from the panel order of FIG. 18A and 18C; first panel (PG13 sample line) in the same gate: 0
[5] = biological target: CD19-targeting first-generation 19z1 CAR; experiment: flow cytometry on CAR+ PG13 fibroblasts, FL2-H PE against FL1-H FITC (no staining), live gate, 7308 events; lower left panel, sample line '19z1-19E9-PE 1 to 1000', same position as 19z1 in FIG. 18A and 18C; first panel (PG13 sample line) in the same gate: 0

B1: 12D11 monoclonal antibody (antibody, V domains shown)
VH: AVRLLESGGGLVKPEGALKLSCVASGFDLSDYFMGWVRQAPGKGLEWVAHIYPQSYDYATYYSGSVQGRFTISRDDSRSMVYLQMNNLRTEDTATYYCTKDGDVGFWGQGTMVTVSS
VL: DIQVTQSPTLLSASLGDKVTINCLASQDISNELNWYQQKSGQSPTLLIYNGKNLQSGVPSRFSGQYSGRSFTISINNVEPEDVATYFCLQHYSFPLTFGDGSKLEMKR
gate frequency (percent of live events in the FITC-positive gate) [1]: 76.4
gate frequency (percent of live events in the FITC-positive gate) [2]: 96.3
gate frequency (percent of live events in the FITC-positive gate) [3]: 67.9

B2: 19E3 monoclonal antibody (antibody, V domains shown)
VH: EVQLVESGGGLVQTGKSLKLSCEASGFTFSDFDMNWVRQAPGKGLEWVAYINGGSGVIFYADAVKGRFTISRDNAKNLLFLQMNNLKSEDSAMYYCAREELGRRYYFDYWGQGTMVTVSS
VL: SQPVLTQSPSASASLSGSVKLTCTLSSEHSSYNIAWYQQHPDKAPKYVMYLKSDGSHFKGDGIPDRFSGSSSGAHRYLSISNVQSEDDATYFCGAGYTISGQYGYVFDSGTQLTVLG
gate frequency (percent of live events in the PE-positive gate) [4]: 0.011
gate frequency (percent of live events in the PE-positive gate) [5]: 99.2
